Holding throughout (conditions): modification not given
The target in assay [1] is T1, human leukocyte cathepsin G (hCG) (human), P08311.
T1 chain: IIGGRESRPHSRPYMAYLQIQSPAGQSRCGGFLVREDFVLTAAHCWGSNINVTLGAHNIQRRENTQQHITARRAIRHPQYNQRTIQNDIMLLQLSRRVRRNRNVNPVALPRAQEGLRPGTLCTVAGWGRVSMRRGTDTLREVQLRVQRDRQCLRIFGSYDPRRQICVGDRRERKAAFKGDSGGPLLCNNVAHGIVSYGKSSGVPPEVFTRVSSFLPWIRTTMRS
As to the kind of experiment: other enzyme inhibition.

Assay [2] deals with T2, human leukocyte elastase (hLE) (human), P08246.
T2 chain: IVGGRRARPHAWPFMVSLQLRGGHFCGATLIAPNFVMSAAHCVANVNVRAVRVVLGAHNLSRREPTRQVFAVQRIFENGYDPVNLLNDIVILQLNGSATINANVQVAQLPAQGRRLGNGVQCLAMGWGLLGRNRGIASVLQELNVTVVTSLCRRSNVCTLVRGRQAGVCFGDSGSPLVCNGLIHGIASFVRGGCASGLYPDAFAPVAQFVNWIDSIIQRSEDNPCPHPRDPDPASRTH

For assay [3], the target named is T2, human leukocyte elastase (hLE) (human), ….
Assay [4] shares this target.
Assay [5] shares this target.
Assay [6] shares this target.
For assay [7] the target is unchanged. As to the kind of experiment: other enzyme inhibition.
Assay [8] has the same target.
Assay [9] has the same target.
The target is the same in assay [10].
For assay [11] the target is unchanged.
Assay [12] has the same target.
Assay [13] has the same target.
Assay [14] shares this target.
Assay [15] has the same target.

Where two headings read alike, the source gives them in different places.

Regarding WSKDIGYSFTVGGSE [CRP67-81 (peptide 7)], the Ki (commonly the equilibrium dissociation constant of an inhibitor or competing ligand from its target) in [1] is above 200 µM.
For KRQDNEILIFWSKDI [CRP57-71 (peptide 5)], the Ki came out at 85 µM in [2] and 180 µM in assay [1].
As for EILIFWSKDIGYSFT [CRP62-76 (peptide 6)], the values for the Ki in assay [3] and in assay [1] were 0.18 µM and 0.25 µM, respectively.
DILIFWSKDIGYSFT [peptide 18]: the values for the Ki in assay [4] and in assay [1] were 2.2 µM and 2.6 µM, respectively.
The molecule FSYATKRQDNEILIF [CRP52-66 (peptide 4)] returned a Ki in [1] above 200 µM.
Consider ILFEVPEVTVAPVHI [CRP82-96 (peptide 10)], for which the Ki in assay [5] is 55 µM; in assay [1] it was 150 µM.
The molecule GYSFTVGGSEILFEV [CRP72-86 (peptide 8)] gave a Ki in assay [1] above 200 µM.
Take EILIFWSKDIGY [CRP62-73 (peptide 13)]: the Ki amounted to 1.1 µM in assay [6] and 4 µM in [1].
For LHFYTELSSTRGYSI [CRP37-51 (peptide 1)], the Ki in assay [7] is above 200 µM.
On to ILIFWSKDIGYSFT [CRP63-76 (peptide 11)], for which the Ki came out at 4.5 µM in [8] and 15 µM in assay [1].
EILIFWPKDIGYSFT [peptide 19] gave a Ki in assay [1] of 30 µM.
Consider EILIFWSKAIGYSFT [peptide 22], for which the results for the Ki in [9] and in assay [1] were 3 µM and 5.5 µM, respectively.
As to VGGSEILFEVPEVTV [CRP77-91 (peptide 9)], the Ki in assay [1] was above 200 µM.
As to EILIFWSVDI [peptide 26], in assay [10], the Ki came out at 2 µM.
Consider EILIFWSKDI [CRP62-71 (peptide 14)], for which the Ki in assay [1] stood at 6 µM; in [11], 6.7 µM.
In [12], TFSYGIDKSWFILIE [peptide 24] showed a Ki of 10 µM.
As to ATKRQDNEILIFWSKDIGYSFTVGGSEIL [CRP55-83 (peptide 17)], the Ki came out at 7.3 µM in assay [13] and 5.5 µM in [1].
Turning to EILIFWSADI [peptide 25], in assay [14], the Ki turned out to be 3 µM.
Regarding EILIFWSKEIGYSFT [peptide 23], the values for the Ki in [15] and in assay [1] were 0.55 µM and 0.85 µM, respectively.

The values are drawn from patent US7182945.
